Values of other authors, collected in paper PMC3078979.
pKd: −log10 of the molar value.

Molecular target: Gamide (amidated gastrin) (Homo sapiens) (UniProt P01350)
Assay: ultracentrifugation

apo-transferrin (from UniProt P02787)
pKd: 5.19
